# According to patent US20130210034A1, “COMPLEX PHOSPHOPROTEIN ACTIVATION PROFILES” (BECKMAN COULTER, INC., priority 2005, published 2013):
# Values joined by “and” are separate entries in the source; they are usually repeats but may differ in a detail not shown here. Equal values may be shown once.
# B1: FMS-Like Tyrosine Kinase 3 (FLT-3) ligand (protein, UniProt P49771 27-235, looked up)
# Fms-related tyrosine kinase 3 …: TQDCSFQHSPISSDFAVKIRELSDYLLQDYPVTVASNLQDEELCGGLWRLVLAQRWMERLKTVAGSKMQGLLERVNTEIHFVTKCAFQPPPSCLRFVQTNISRLLQETSEQLVALKPWITRQNFSRCLELQCQPDSSTLPPPWSPRPLEATAPTAPQPPLLLLLLLPVGLLLLAAAWCLHWQRTRRRTPRPGEQVPPVPSPQDLLLVEH
# How the values were obtained:
# Test in all cases: Cytokine-stimulated phosphorylation in immunophenotypically defined cell populations from healthy donor BM (flow cytometry);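 for pS6 S/N ratio: Phosphoprotein MFI normalized to lymphocyte MFI as internal negative control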;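 for pSTAT5 S/N ratio: Phosphoprotein MFI normalized to lymphocyte MFI as internal negative control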
# Assay type in all cases: cell-based, human
# [1] = system: pSTAT5; details: healthy donor BM, mean ± SD;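 for pSTAT5 S/N ratio: Phosphoprotein MFI normalized to lymphocyte MFI as internal negative control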
# Protocol: (§1) Bone marrow (BM) samples were collected in 7.5 mL Iscove's modified Dulbecco's medium (IMDM) supplemented with 100U penicillin, 0.01 mg/mL streptomycin, and 70 μg/mL heparin sodium salt from 10 patients undergoing hip replacement surgery, who were otherwise healthy. These patients were from a pool of surgery patients, age 49 to 77, and represented […] patients. […] These BM samples were rinsed twice with IMDM to release cells, filtered using a 100 μm Nylon cell strainer to remove marrow particles, and centrifuged for at RT fro 7 minutes at 200 g. The cell pellet was washed twice with sterile IMDM to remove traces of fat and re-suspended in IMDM to a concentration of 3×10^7 cells/mL.
# (§2) To assess the signal transduction response after growth factor simulation, a series comprising two sets of tubes including about 3×10^6 cells/100 μL were incubated at 37° C. for 30 minutes. After this pre-incubation period, tubes with then processes with either a stimulant or inhibitor. […] To examine the effects of protein phosphorylation inhibition, tubes were incubated with an inhibitor cocktail comprising 100 μM/100 μL UO126, 1 μM/100 μL LY294002, and 1 μM/100 μL rapamycin. One unstimulated tube receiving no stimulant or inhibitor was processed to assess basal levels of phospho-protein expression. After stimulation the cells were immediately fixed in 10% formaldehyde solution at 37° C. Pre-labeling with CD13, CD16 and CD64 antibodies was carried out 20 minutes prior to formaldehyde fixation. After fixation, one set of tubes was permeabilized without methanol for pAKT, pERK and pS6 staining and the other for 80% methanol permeabilized for pSTAT3 and pSTAT5 staining. After permeablization, the cells were washed in PBS with 2% BSA and blocked by re-suspended in 75 μL of PBS comprising 25% heat inactivated normal mouse serum, 25% normal rabbit serum. To stain cells with fluorescent conjugated monoclonal antibodies, samples were incubated on ice for 45 minutes in 100 μL of an antibody staining solution including either: 1) CD15-Pacific Orange, CD34-Phycoerythrin-Texas Red, CD117-Phycoerythrin-Cyanin 5.5, CD45-Allophycocyanin-Alexa Fluor 750 (or CD45-Pacific Orange, in which case CD15-Pacific Orange was omitted), pS6-Pacific Blue, pERK-Alexa Fluor 488 and pAKT-Alexa Fluor 647 or 2) CD15-Pacific Orange, CD34-Phycoerythrin-Texas Red, CD117-Phycoerythrin-Cyanin 5.5, CD45-Allophycocyanin-Alexa Fluor 750 or CD45-Pacific Blue, pSTAT3-Alexa Fluor 488 and pSTAT5-Phycoerythrin. The stained cells were washed twice with ice cold PBS containing 2% BSA and centrifuged at 800 g for 6 minutes at 4° C. The supernatant was discarded and cells re-suspended in 250 μL of chilled wash buffer for data acquisition. Stained cells were examined using either GALIOS flow cytometer (Beckman Coulter) or CYAN ADP (Beckman Coulter) equipped with 488 nm, 405 nm and 635 nm lasers to detect the degree of fluorescence. Data were analyzed using FCS Express (De Novo Software, CA) analysis software.
# (§3) Specific phosphoprotein expression of pERK, pS6, pAKT, pSTAT5, and pSTAT3 was examined in seven discrete phenotypically defined populations based on 7-color immunophenotyping (FIG. 1). The percent of responding (phosphorprotein positive) cells for each of these populations was determined from individual single parameter histograms based on a fixed integration region set on the inhibitor treated control at about 3% positives.
# [2] = system: pS6; details: healthy donor BM, mean ± SD;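 for pS6 S/N ratio: Phosphoprotein MFI normalized to lymphocyte MFI as internal negative control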
# Protocol: as §1, §2, §3
# [3] = system: pAKT; details: for pAKT Percent (%) Responding Cells, Mean / pAKT S/N ratio: healthy donor BM, mean ± SD
# Protocol: as §1, §2, §3
# [4] = system: pSTAT3; details: healthy donor BM, mean ± SD
# Protocol: as §1, §2, §3
# [5] = system: pERK; details: for pERK Percent (%) Responding Cells, Mean / pERK S/N ratio: healthy donor BM, mean ± SD
# Protocol: as §1, §2, §3
molecule,measurement,setting,value
B1,"pSTAT5 Percent (%) Responding Cells, Mean",[1]; CD34^+ (CD34^+/CD117^+ cells),16.1 ± 6.1%
same,pSTAT5 S/N ratio,[1]; CD34^+ (CD34^+/CD117^+ cells),1.9 ± 1.4
same,"pSTAT5 Percent (%) Responding Cells, Mean",[1]; CD117^+ (CD34^−/CD117^+ cells),5.7 ± 5.8%
same,pSTAT5 S/N ratio,[1]; CD117^+ (CD34^−/CD117^+ cells),2.1 ± 0.6
same,"pSTAT5 Percent (%) Responding Cells, Mean","[1]; G1, immature myeloid cells",2.7 ± 2.5%
same,pSTAT5 S/N ratio,"[1]; G1, immature myeloid cells",2.6 ± 0.5
same,"pSTAT5 Percent (%) Responding Cells, Mean","[1]; G2, intermediate myeloid cells",2.0 ± 1.6%
same,pSTAT5 S/N ratio,"[1]; G2, intermediate myeloid cells",2.7 ± 0.5
same,"pSTAT5 Percent (%) Responding Cells, Mean","[1]; G3, mature myeloid cells",3.1 ± 1.0%
same,pSTAT5 S/N ratio,"[1]; G3, mature myeloid cells",3.2 ± 0.7
same,"pSTAT5 Percent (%) Responding Cells, Mean","[1]; Mono, monocytes",3.1 ± 1.9%
same,pSTAT5 S/N ratio,"[1]; Mono, monocytes",3.9 ± 4.9
same,"pS6 Percent (%) Responding Cells, Mean",[2]; CD34^+ (CD34^+/CD117^+ cells),68.8% and 68.8 ± 21.1%
same,pS6 S/N ratio,[2]; CD34^+ (CD34^+/CD117^+ cells),31.1 ± 26.0
same,"pS6 Percent (%) Responding Cells, Mean",[2]; CD117^+ (CD34^−/CD117^+ cells),36.1 ± 16.4%
same,pS6 S/N ratio,[2]; CD117^+ (CD34^−/CD117^+ cells),44.4 ± 44.4
same,"pS6 Percent (%) Responding Cells, Mean","[2]; G1, immature myeloid cells",2.1 ± 1.5%
same,pS6 S/N ratio,"[2]; G1, immature myeloid cells",3.3 ± 1.9
same,"pS6 Percent (%) Responding Cells, Mean","[2]; G2, intermediate myeloid cells",2.5 ± 1.9%
same,pS6 S/N ratio,"[2]; G2, intermediate myeloid cells",2.9 ± 1.8
same,"pS6 Percent (%) Responding Cells, Mean","[2]; G3, mature myeloid cells",3.9 ± 2.7%
same,pS6 S/N ratio,"[2]; G3, mature myeloid cells",3.6 ± 2.3
same,pS6 S/N ratio,"[2]; Mono, monocytes",33.4 and 33.4 ± 30.5
same,"pAKT Percent (%) Responding Cells, Mean",[3]; CD34^+ (CD34^+/CD117^+ cells),34.3% and 34.3 ± 19.4%
same,pAKT S/N ratio,[3]; CD34^+ (CD34^+/CD117^+ cells),7.2 ± 4.9
same,"pAKT Percent (%) Responding Cells, Mean",[3]; CD117^+ (CD34^−/CD117^+ cells),20.5 ± 28.3%
same,pAKT S/N ratio,[3]; CD117^+ (CD34^−/CD117^+ cells),2.8 ± 2.9
same,"pAKT Percent (%) Responding Cells, Mean","[3]; G1, immature myeloid cells",3.0 ± 4.3%
same,pAKT S/N ratio,"[3]; G1, immature myeloid cells",2.3 ± 1.1
same,"pAKT Percent (%) Responding Cells, Mean","[3]; G2, intermediate myeloid cells",3.6 ± 5.0%
same,pAKT S/N ratio,"[3]; G2, intermediate myeloid cells",2.4 ± 1.0
same,"pAKT Percent (%) Responding Cells, Mean","[3]; G3, mature myeloid cells",3.8 ± 2.5%
same,pAKT S/N ratio,"[3]; G3, mature myeloid cells",2.7 ± 1.3
same,"pAKT Percent (%) Responding Cells, Mean","[3]; Mono, monocytes",21.5% and 21.5 ± 23.8%
same,pAKT S/N ratio,"[3]; Mono, monocytes",4.2 ± 3.0
same,"pAKT, Normal Sample",[3]; Table 7 comparison value,76.9
same,"pSTAT3 Percent (%) Responding Cells, Mean",[4]; CD34^+ (CD34^+/CD117^+ cells),13.5 ± 9.4%
same,pSTAT3 S/N ratio,[4]; CD34^+ (CD34^+/CD117^+ cells),3.5 ± 3.3
same,"pSTAT3 Percent (%) Responding Cells, Mean",[4]; CD117^+ (CD34^−/CD117^+ cells),3.5 ± 2.2%
same,pSTAT3 S/N ratio,[4]; CD117^+ (CD34^−/CD117^+ cells),2.6 ± 0.6
same,"pSTAT3 Percent (%) Responding Cells, Mean","[4]; G1, immature myeloid cells",2.7 ± 3.3%
same,pSTAT3 S/N ratio,"[4]; G1, immature myeloid cells",3.4 ± 0.4
same,"pSTAT3 Percent (%) Responding Cells, Mean","[4]; G2, intermediate myeloid cells",1.8 ± 1.4%
same,pSTAT3 S/N ratio,"[4]; G2, intermediate myeloid cells",3.3 ± 0.6
same,"pSTAT3 Percent (%) Responding Cells, Mean","[4]; G3, mature myeloid cells",5.3 ± 5.6%
same,pSTAT3 S/N ratio,"[4]; G3, mature myeloid cells",3.7 ± 0.5
same,"pSTAT3 Percent (%) Responding Cells, Mean","[4]; Mono, monocytes",4.8 ± 3.9%
same,pSTAT3 S/N ratio,"[4]; Mono, monocytes",2.6 ± 0.4
same,"pERK Percent (%) Responding Cells, Mean",[5]; CD34^+ (CD34^+/CD117^+ cells),76.9% and 76.9 ± 11.0%
same,pERK S/N ratio,[5]; CD34^+ (CD34^+/CD117^+ cells),11.9 ± 3.6
same,"pERK Percent (%) Responding Cells, Mean",[5]; CD117^+ (CD34^−/CD117^+ cells),37.1 ± 8.8%
same,pERK S/N ratio,[5]; CD117^+ (CD34^−/CD117^+ cells),10.9 ± 2.9
same,"pERK Percent (%) Responding Cells, Mean","[5]; G1, immature myeloid cells",3.3 ± 5.4%
same,pERK S/N ratio,"[5]; G1, immature myeloid cells",2.9 ± 0.7
same,"pERK Percent (%) Responding Cells, Mean","[5]; G2, intermediate myeloid cells",6.3 ± 11.2%
same,pERK S/N ratio,"[5]; G2, intermediate myeloid cells",2.8 ± 0.6
same,"pERK Percent (%) Responding Cells, Mean","[5]; G3, mature myeloid cells",9.1 ± 15.6%
same,pERK S/N ratio,"[5]; G3, mature myeloid cells",3.6 ± 1.3
same,pERK S/N ratio,"[5]; Mono, monocytes",12.8 and 12.8 ± 6.7
same,"pERK, Normal Sample","[5]; Table 7 comparison value, matches percent responding CD34^+ cells of Tables 1-5",76.9
